The target of test [1] is T1, Pig Semaphorin3A-Sema Domain, TPP-20176 (pig, UniProt Q63548 21-569 (rat entry)).
T1 construct: produced inhouse
T1 chain: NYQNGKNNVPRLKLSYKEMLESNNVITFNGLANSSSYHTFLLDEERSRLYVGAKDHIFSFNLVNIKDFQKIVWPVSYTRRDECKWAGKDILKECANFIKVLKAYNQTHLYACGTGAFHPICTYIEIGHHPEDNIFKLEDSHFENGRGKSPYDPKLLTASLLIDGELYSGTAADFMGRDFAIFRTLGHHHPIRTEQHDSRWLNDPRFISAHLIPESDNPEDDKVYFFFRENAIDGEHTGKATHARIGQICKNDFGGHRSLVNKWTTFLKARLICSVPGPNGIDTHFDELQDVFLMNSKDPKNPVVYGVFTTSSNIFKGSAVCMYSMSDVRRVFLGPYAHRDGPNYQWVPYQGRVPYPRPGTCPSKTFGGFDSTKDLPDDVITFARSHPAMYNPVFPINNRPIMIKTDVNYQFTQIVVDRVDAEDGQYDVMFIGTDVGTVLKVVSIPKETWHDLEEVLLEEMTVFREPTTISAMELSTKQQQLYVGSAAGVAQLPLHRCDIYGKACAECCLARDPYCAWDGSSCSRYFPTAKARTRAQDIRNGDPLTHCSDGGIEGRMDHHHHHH
The experiment in a line: SPR, captured antibody, Sema3A domain analyte. The essentials: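 SPR on Biacore T200/8K+ at 25° C in HBS P+ with 300 mM NaCl, 0.75 mM CaCl₂, 2.5 mM MgCl₂, 1 mg/ml BSA; antibodies captured by anti-human Fc, or anti-human Fab for Fc-tagged analytes. Fc-Sema3A at 1.56-200 nM; monovalent Sema domains at […]-3.125 nM multi-cycle or 100 nM binding only. Double-referenced 1:1 Langmuir fit.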

Test [2] concerns the target T2, human wild-type Sema3A of SEQ ID NO: 600, expressed by HEK293 cells (human, UniProt Q14563 22-771, limits assumed).
T2 sequence: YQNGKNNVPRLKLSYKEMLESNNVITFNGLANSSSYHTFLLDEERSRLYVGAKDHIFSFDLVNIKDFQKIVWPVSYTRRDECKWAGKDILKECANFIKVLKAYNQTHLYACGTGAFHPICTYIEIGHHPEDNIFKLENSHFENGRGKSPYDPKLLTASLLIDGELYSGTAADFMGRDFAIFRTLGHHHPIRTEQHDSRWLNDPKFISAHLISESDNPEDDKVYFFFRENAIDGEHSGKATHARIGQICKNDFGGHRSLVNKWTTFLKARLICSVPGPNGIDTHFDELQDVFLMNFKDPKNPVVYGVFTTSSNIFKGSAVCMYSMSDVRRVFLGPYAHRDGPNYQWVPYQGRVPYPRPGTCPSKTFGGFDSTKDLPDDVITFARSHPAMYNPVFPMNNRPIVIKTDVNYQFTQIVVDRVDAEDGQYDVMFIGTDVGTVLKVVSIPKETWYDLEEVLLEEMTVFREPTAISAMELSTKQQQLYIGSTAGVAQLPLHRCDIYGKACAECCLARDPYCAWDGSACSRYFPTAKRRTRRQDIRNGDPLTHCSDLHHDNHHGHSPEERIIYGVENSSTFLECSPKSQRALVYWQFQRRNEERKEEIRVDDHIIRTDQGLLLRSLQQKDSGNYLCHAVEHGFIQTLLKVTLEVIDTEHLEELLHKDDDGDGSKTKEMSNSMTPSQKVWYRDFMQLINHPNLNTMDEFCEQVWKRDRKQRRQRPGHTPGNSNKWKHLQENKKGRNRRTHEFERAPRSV
The experiment in a line: cell-based or functional assay.

For test [3], the target named is Human Semaphorin3A-Fc (R&D Systems), TPP-13211 (human). The experiment in a line: cell-based or functional assay.
Test [4] concerns the target T2, human wild-type Sema3A of SEQ ID NO: …. The experiment in a line: cell-based or functional assay. This is another data set of the same source.

Some results are limits rather than exact numbers.

Sequence of Human Semaphorin3A-Fc (R&D Systems), TPP-13211 (human) (chain, as listed by the source limits assumed): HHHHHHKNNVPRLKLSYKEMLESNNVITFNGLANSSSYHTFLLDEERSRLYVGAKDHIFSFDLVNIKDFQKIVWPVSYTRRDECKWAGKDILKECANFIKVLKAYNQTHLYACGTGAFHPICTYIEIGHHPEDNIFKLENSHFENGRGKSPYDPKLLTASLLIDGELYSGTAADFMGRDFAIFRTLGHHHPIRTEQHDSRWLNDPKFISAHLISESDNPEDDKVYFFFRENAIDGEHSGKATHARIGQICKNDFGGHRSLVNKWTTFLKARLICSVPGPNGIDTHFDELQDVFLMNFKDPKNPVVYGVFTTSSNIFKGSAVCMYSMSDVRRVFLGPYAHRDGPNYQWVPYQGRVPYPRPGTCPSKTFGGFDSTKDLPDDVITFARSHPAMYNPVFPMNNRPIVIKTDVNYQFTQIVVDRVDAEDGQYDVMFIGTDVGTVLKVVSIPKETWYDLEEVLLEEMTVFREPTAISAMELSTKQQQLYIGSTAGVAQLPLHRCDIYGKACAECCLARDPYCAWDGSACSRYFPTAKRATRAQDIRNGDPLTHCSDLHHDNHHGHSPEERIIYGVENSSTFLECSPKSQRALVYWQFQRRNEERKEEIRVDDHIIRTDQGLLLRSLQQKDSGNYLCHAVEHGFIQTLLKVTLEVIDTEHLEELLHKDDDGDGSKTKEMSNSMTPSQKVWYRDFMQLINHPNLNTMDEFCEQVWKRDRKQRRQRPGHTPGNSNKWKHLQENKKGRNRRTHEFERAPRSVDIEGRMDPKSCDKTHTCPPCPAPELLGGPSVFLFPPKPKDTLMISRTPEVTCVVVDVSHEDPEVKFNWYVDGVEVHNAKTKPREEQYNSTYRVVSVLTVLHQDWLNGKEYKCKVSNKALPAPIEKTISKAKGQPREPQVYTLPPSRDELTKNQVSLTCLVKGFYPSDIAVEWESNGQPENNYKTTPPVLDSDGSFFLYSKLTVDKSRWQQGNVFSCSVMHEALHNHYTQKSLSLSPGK

B1: TPP-30788 (antibody, human IgG1, kappa, V domains shown)
VH: EVQLVESGGGLVQPGGSLRLSCAASGFTFSSYYMSWVRQAPGKGLEWVSTIIKSGGYAYYPDSVKDRFTISRDNSKNTLYLQMSSLRAEDTAVYYCVRGGQGAMDYWGQGTTVTVSS
VL: EIVLTQSPATLSLSPGERATLSCRASQSIGDYLHWYQQKPGQAPRLLIKYASQSISGIPARFSGSGSGTDFTLTITSLEPEDFAVYYCQQGYSFPYTFGGGTKLEIKR
notes: prior art, WO 2020/225400; also called BI clone I; Böhringer (BI) Clone I
In the case of B1, the Kd in test [1] worked out at 38 pM. Besides, in test [2], the “EC50 (pM), HUVEC repulsion assay, second experiment” value (from here on “EC50 (pM) … second experiment”) amounted to 104 pM.

B2: TPP-30790 (antibody, human IgG1, kappa, V domains shown)
VH: EVQLVESGGGLVQLGGSLRLSCAASGFTFSSYYMSWVRQAPGKGLEWVSTIIKSGGYAYYPDSVKDRFTISRDNSKNTLYLQMNSLRAEDTAVYYCVKGGQGAMDYWGQGTTVTVSS
VL: EIVLTQSPATLSLSPGERATLSCRASQSIGDYLHWYQQKPGQAPRLLIYYASQSISGIPARFSGSGSGTDFTLTISSLEPEDFAVYYCQQGYSFPYTFGGGTKLEIKR
notes: prior art, WO 2020/225400; also called BI clone III; Böhringer (BI) Clone III
Molecule B2 had a Kd in test [1] of 36 pM. Also, the “EC50 (pM) … second experiment” value in test [2] was 121 pM.

B3: TPP-30789 (antibody, human IgG1, kappa, V domains shown)
VH: EVQLVESGGGLVQPGGSLRLSCAASGFPFSSYYMSWVRQAPGKGLEWVSTIIKSGGYAYYPDSVKDRFTISRDNSKNTLYLQMSSLRAEDTAVYYCVRGGQGAMDYWGQGTTVTVSS
VL: EIVLTQSPATLSLSPGERATLSCRASQSIGDYLHWYQQKPGQAPRLLIKYASQSISGIPARFSGSGSGTDFTLTITSLEPEDFAVYYCQQGYSFPYTFGGGTKLEIKR
notes: prior art, WO 2020/225400; also called BI clone II; Böhringer (BI) Clone II
Take B3: binding in test [1] was characterised by a dissociation constant (Kd) of 39 pM. Besides, the “EC50 (pM) … second experiment” value in test [2] amounted to 165 pM.

B4: TPP-30791 (antibody, human IgG1, kappa, V domains shown)
VH: EVQLVESGGGLLQLGGSLRLSCAASGFTFSSYYMSWVRQAPGKGLEWVSTIIKSGGYAYYPDSVKDRFTISRDNSKNTLNLQMNSLRAEDTAVYYCVKGGQGAMDYWGQGTTVTVSS
VL: EIVLTQSPATLSLSPGERATLSCRASQSIGDYLHWYQQKPGQAPRLLIKYASQSISGIPARFSGSGSGTDFTLTISSLEPEDFAVYYCQQGYSFPYTFGGGTKLEIKR
notes: prior art, WO 2020/225400; also called BI clone IV; Böhringer (BI) Clone IV
In test [1], B4 showed an equilibrium dissociation constant (Kd) of 29 pM. Besides, the “EC50 (pM) … second experiment” value in test [2] came to 221 pM.

B5: TPP-15374 (antibody, human IgG1, lambda, V domains shown)
VH: EVQLLESGGGLVQPGGSLRLSCAASGFTFSSYEMNWVRQAPGKGLEWVSGISWNSGSIGYADSVKGRFTISRDNSKNTLYLQMNSLRAEDTAVYYCARSGYSSSWFDPDFDYWGQGTLVTVSS
VL: QSVLTQPPSASGTPGQRVTISCTGSSSNIGAGYDVHWYQQLPGTAPKLLIYGNSNRPSGVPDRFSGSKSGTSASLAISGLRSEDEADYYCSSYAGSNPYVVFGGGTKLTVLG
notes: human IgG1; also called IgG1, hit from panning; parental mAb
B5 came in with a Kd in test [1] of 7200 pM. The “EC50 (nM), GCC assay” value in test [3] amounted to 8.13 nM.

B6: TPP-30792 (antibody, human IgG1, lambda, V domains shown)
V domain 1: EVQLLESGGGLVQPGGSLRLSCAASGFTFRSYAVHWVRQAPGKGLEWVSSTEGSGVGTSYTDSVKGRFTISRDNSKNTLYLQMNSLRAEDTAVYYCARMLGGGNPLDYLDYWGQGTLVTVSS
V domain 2: QSVLTQPPSASGTPGQRVTISCSGSSSNLGEGYDVHWYQQLPGKAPKLLIYYSDFRPSGVSDRFSGSKSGTSASLAISGLQSEDEADYYCAAWDDSLSSQVFGGGTQVTVLG
notes: IgG1; prior art, WO 2020/261281; also called 3H4 Univ Ramot; 3H4 (Ramot) Clon I
Take B6: the binding result in test [1] is “no binding”.

B7: TPP-23337 (antibody, human IgG4 S228P, lambda, V domains shown)
VH: EVQLLESGGGLVQPGGSLRLSCAASGFTFSSYAMSWVRQAPGKGLEWVSAIGYGGDTYYADSVKGRFTISRDNSKNTLYLQMNSLRAEDTAVYYCARRDDYTSRDAFDYWGQGTLVTVSS
VL: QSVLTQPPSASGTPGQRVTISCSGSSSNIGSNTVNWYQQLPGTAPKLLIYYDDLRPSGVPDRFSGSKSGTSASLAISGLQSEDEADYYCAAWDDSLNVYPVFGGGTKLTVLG
For the molecule B7, the dissociation constant (Kd) in test [1] worked out at 11 pM. In test [3], the “EC50 (nM), GCC assay” value turned out to be 2.12 nM. Further, the “EC50 (pM), HUVEC repulsion assay” value in test [4] worked out at 170 pM.

B8: TPP-15370 (antibody, human IgG1, lambda, V domains shown)
VH: EVQLLESGGGLVQPGGSLRLSCAASGFTFSSYGMHWVRQAPGKGLEWVSAIGTGGDTYYADSVMGRFTISRDNSKNTLYLQMNSLRAEDTAVYYCARRDDYTSRDAFDVWGQGTLVTVSS
VL: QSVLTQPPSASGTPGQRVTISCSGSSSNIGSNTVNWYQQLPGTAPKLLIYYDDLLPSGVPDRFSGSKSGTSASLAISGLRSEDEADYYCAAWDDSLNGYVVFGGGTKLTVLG
notes: as for B5
With B8, in test [1], the Kd was 9000 pM. The “EC50 (nM), GCC assay” value in test [3] came out at 4.33 nM. In test [4], the “EC50 (pM), HUVEC repulsion assay” value stood at 800 pM.

B9: TPP-23375 (antibody, human IgG4 S228P, lambda, V domains shown)
VH: EVQLLESGGGLVQPGGSLRLSCAASGFTFYSYAMSWVRQAPGKGLEWVSAIGYGGDTYYADSVKGRFTISRDNSKNTLYLQMNSLRAEDTAVYYCARRDDYTSRDAFDYWGQGTLVTVSS
VL: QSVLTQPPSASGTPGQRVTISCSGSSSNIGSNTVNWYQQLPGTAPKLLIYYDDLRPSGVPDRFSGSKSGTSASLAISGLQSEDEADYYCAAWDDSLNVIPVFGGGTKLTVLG
B9 had a Kd in test [1] of 47 pM. For the same molecule, the “EC50 (pM), HUVEC repulsion assay” value in test [4] turned out to be 123 pM.

B10: TPP-23373 (antibody, human IgG4 S228P, lambda, V domains shown)
VH: EVQLLESGGGLVQPGGSLRLSCAASGFTFYSYAMSWVRQAPGKGLEWVSAIGYGGDTYYADSVKGRFTISRDNSKNTLYLQMNSLRAEDTAVYYCARRDDYTSRDAFDYWGQGTLVTVSS
VL: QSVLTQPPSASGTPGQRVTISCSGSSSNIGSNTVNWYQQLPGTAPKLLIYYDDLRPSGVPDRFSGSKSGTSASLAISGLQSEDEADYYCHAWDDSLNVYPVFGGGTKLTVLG
The molecule B10 yielded a Kd in test [1] of 78 pM. Also, the “EC50 (pM), HUVEC repulsion assay” value in test [4] is 180 pM.

B11: TPP-23338 (antibody, human IgG4 S228P, lambda, V domains shown)
VH: EVQLLESGGGLVQPGGSLRLSCAASGFTFSSYAMSWVRQAPGKGLEWVSAIGYGGDTYYADSVKGRFTISRDNSKNTLYLQMNSLRAEDTAVYYCARRDDYTSRDAFDYWGQGTLVTVSS
VL: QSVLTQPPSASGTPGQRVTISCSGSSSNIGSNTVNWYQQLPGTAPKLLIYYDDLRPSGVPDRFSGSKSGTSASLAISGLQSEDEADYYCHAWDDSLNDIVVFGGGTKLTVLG
B11 gave a Kd in test [1] of 46 pM.

B12: TPP-23374 (antibody, human IgG4 S228P, lambda, V domains shown)
VH: EVQLLESGGGLVQPGGSLRLSCAASGFTFYSYAMSWVRQAPGKGLEWVSAIGYGGDTYYADSVKGRFTISRDNSKNTLYLQMNSLRAEDTAVYYCARRDDYTSRDAFDYWGQGTLVTVSS
VL: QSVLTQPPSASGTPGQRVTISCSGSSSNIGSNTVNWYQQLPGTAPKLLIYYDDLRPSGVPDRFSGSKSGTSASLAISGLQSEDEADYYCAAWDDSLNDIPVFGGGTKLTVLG
Take B12: in test [1], the Kd is less than 3 pM. The “EC50 (nM), GCC assay” value in test [3] worked out at 2.19 nM. The “EC50 (pM), HUVEC repulsion assay” value in test [4] stood at 77 pM.

B13: TPP-23341 (antibody, human IgG4 S228P, lambda, V domains shown)
VH: EVQLLESGGGLVQPGGSLRLSCAASGFTFSSYAMSWVRQAPGKGLEWVSAIGYGGDTYYADSVKGRFTISRDNSKNTLYLQMNSLRAEDTAVYYCARRDDYTSRDAFDYWGQGTLVTVSS
VL: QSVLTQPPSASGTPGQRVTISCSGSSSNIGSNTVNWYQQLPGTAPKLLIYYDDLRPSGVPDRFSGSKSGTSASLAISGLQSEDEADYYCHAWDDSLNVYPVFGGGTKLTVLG
As to B13, the Kd in test [1] was determined as 86 pM. Besides, in test [4], the “EC50 (pM), HUVEC repulsion assay” value was 113 pM.

B14: TPP-23346 (antibody, human IgG4 S228P, lambda, V domains shown)
VH: EVQLLESGGGLVQPGGSLRLSCAASGFTFYSYAMLWVRQAPGKGLEWVSAIGTGGDTYYADSVKGRFTISRDNSKNTLYLQMNSLRAEDTAVYYCARRDDYTSRDAFDYWGQGTLVTVSS
VL: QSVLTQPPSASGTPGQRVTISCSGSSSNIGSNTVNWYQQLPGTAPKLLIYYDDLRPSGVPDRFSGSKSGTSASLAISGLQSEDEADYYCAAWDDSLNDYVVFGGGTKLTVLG
With B14, in test [1], the affinity, expressed as Kd, was 58 pM.

B15: TPP-23347 (antibody, human IgG4 S228P, lambda, V domains shown)
VH: EVQLLESGGGLVQPGGSLRLSCAASGFTFYSYAMLWVRQAPGKGLEWVSAIGTGGDTYYADSVKGRFTISRDNSKNTLYLQMNSLRAEDTAVYYCARRDDYTSRDAFDYWGQGTLVTVSS
VL: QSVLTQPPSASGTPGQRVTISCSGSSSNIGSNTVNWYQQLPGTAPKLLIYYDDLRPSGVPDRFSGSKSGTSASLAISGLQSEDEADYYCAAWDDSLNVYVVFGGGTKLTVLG
On to B15, for which binding in test [1] was characterised by a dissociation constant (Kd) of 53 pM.

B16: TPP-23340 (antibody, human IgG4 S228P, lambda, V domains shown)
VH: EVQLLESGGGLVQPGGSLRLSCAASGFTFSSYAMSWVRQAPGKGLEWVSAIGYGGDTYYADSVKGRFTISRDNSKNTLYLQMNSLRAEDTAVYYCARRDDYTSRDAFDYWGQGTLVTVSS
VL: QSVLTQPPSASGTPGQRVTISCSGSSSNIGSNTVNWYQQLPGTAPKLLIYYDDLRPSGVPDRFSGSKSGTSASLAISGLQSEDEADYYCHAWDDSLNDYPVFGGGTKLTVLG
In turn, B16 showed a Kd in test [1] of 62 pM. The “EC50 (pM), HUVEC repulsion assay” value in test [4] was determined as 180 pM.

B17: TPP-23345 (antibody, human IgG4 S228P, lambda, V domains shown)
VH: EVQLLESGGGLVQPGGSLRLSCAASGFTFSSYAMSWVRQAPGKGLEWVSAIGYGGDTYYADSVKGRFTISRDNSKNTLYLQMNSLRAEDTAVYYCARRDDYTSRDAFDYWGQGTLVTVSS
VL: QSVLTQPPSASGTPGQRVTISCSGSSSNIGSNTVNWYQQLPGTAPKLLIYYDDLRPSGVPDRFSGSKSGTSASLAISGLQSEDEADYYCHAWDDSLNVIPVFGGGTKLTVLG
With B17, binding in test [1] was put at a Kd of 55 pM.

B18: TPP-23334 (antibody, human IgG4 S228P, lambda, V domains shown)
VH: EVQLLESGGGLVQPGGSLRLSCAASGFTFSSYAMSWVRQAPGKGLEWVSAIGYGGDTYYADSVKGRFTISRDNSKNTLYLQMNSLRAEDTAVYYCARRDDYTSRDAFDYWGQGTLVTVSS
VL: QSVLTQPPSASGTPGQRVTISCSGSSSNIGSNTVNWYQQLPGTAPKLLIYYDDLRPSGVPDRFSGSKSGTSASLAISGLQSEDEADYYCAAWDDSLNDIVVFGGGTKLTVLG
B18 came in with a Kd in test [1] of 14 pM. Also, the “EC50 (nM), GCC assay” value in test [3] turned out to be 2.24 nM. The “EC50 (pM), HUVEC repulsion assay” value in test [4] stood at 120 pM.

Values taken from patent US20240254222A1 (Bayer, published 2024).
